What all share (assay): co-IP (IP: Strep, western blot bands quantified with ImageJ)
(A western blot detects proteins with antibodies after separation by electrophoresis.)

Experiment [1] has as its target GP4 of PRRSV HuN4-F112, Strep-tagged (pCAGGS-GP4-Strep). The conditions noted are these: plasmids cotransfected into HEK-293T cells; parent: est. 0.86; read off a plot.
Experiment [2] deals with CD163 receptor, HA-tagged (pCAGGS-CD163-HA) (UniProt Q2VL90). Particulars: plasmids cotransfected into HEK-293T cells, read off a plot.
For experiment [3], the target named is GP2a of PRRSV HuN4-F112, Strep-tagged (pCAGGS-GP2a-Strep). The conditions noted are these: chain shown with the change; plasmids cotransfected into HEK-293T cells; parent: est. 2.9; read off a plot.

Regarding “CD163 receptor, HA-tagged (pCAGGS-CD163-HA) (from UniProt Q2VL90) R561A”, in experiment [1], the response (relative ratio of CD163/GP4) is 0.64. Still for that read-out and setting: the same measure for “CD163 receptor, HA-tagged (pCAGGS-CD163-HA) (from UniProt Q2VL90) R561del”: 0.27.

Regarding “GP2a of PRRSV HuN4-F112, Strep-tagged (pCAGGS-GP2a-Strep) V118I”, the response (relative ratio of CD163/GP2) in experiment [2] (parent: est. 0.18) stood at 0.67. With “GP2a of PRRSV HuN4-F112, Strep-tagged (pCAGGS-GP2a-Strep) V118del”, the response (relative ratio of CD163/GP2) in experiment [2] (parent: est. 0.61) is 0.23. “GP4 of PRRSV HuN4-F112, Strep-tagged (pCAGGS-GP4-Strep) N43D”: in experiment [2] (parent: est. 0.74), the response (relative ratio of CD163/GP4) worked out at 1.4.

With “GP4 of PRRSV HuN4-F112, Strep-tagged (pCAGGS-GP4-Strep) N43del”, in experiment [2] (parent: est. 1.2), the response (relative ratio of CD163/GP4) was 0.57.

B1: CD163 receptor, HA-tagged (pCAGGS-CD163-HA), Q2VL90 R561A (protein)
chain: KDKELRLTGGENKCSGRVEVKVQEEWGTVCNNGWDMDVVSVVCRQLGCPTAIKATGWANFSAGSGRIWMDHVSCRGNESALWDCKHDGWGKHNCTHQQDAGVTCSDGSDLEMGLVNGGNRCLGRIEVKFQGRWGTVCDDNFNINHASVVCKQLECGSAVSFSGSANFGEGSGPIWFDDLVCNGNESALWNCKHEGWGKHNCDHAEDAGVICLNGADLKLRVVDGVTECSGRLEVKFQGEWGTICDDGWDSDDAAVACKQLGCPTAVTAIGRVNASEGTGHIWLDSVSCHGHESALWQCRHHEWGKHYCNHDEDAGVTCSDGSDLELRLKGGGSHCAGTVEVEIQKLVGKVCDRSWGLKEADVVCRQLGCGSALKTSYQVYSKTKATNTWLFVSSCNGNETSLWDCKNWQWGGLSCDHYDEAKITCSAHRKPRLVGGDIPCSGRVEVQHGDTWGTVCDSDFSLEAASVLCRELQCGTVVSLLGGAHFGEGSGQIWAEEFQCEGHESHLSLCPVAPAPDGTCSHSRDVGVVCSRYTQIRLVNGKTPCEGRVELNILGSWGSLCNSHWDMEDAHVLCQQLKCGVALSIPGGAPFGKGSEQVWRHMFHCTGTEKHMGDCSVTALGASLCSSGQVASVICSGNQSQTLSPCNSSSSDPSSSIISEENGVACIGSGQLRLVDGGGRCAGRVEVYHEGSWGTICDDSWDLNDAHVVCKQLSCGWAINATGSAHFGEGTGPIWLDEINCNGKESHIWQCHSHGWGRHNCRHKEDAGVICSEFMSLRLISENSRETCAGRLEVFYNGAWGSVGRNSMSPATVGVVCRQLGCADRGDISPASSDKTVSRHMWVDNVQCPKGPDTLWQCPSSPWKKRLASPSEETWITCANKIRLQEGNTNCSGRVEIWYGGSWGTVCDDSWDLEDAQVVCRQLGCGSALEAGKEAAFGQGTGPIWLNEVKCKGNETSLWDCPARSWGHSDCGHKEDAAVTCSEIAKSRESLHATGRSSFVALAIFGVILLACLIAFLIWTQKRRQRQRLSVFSGGENSVHQIQYREMNSCLKADETDMLNPSGDHSEVQ
As for B1, the response (relative ratio of CD163/GP2) in experiment [3] came to 1.8.

B2: CD163 receptor, HA-tagged (pCAGGS-CD163-HA), Q2VL90 R561del (protein)
chain: KDKELRLTGGENKCSGRVEVKVQEEWGTVCNNGWDMDVVSVVCRQLGCPTAIKATGWANFSAGSGRIWMDHVSCRGNESALWDCKHDGWGKHNCTHQQDAGVTCSDGSDLEMGLVNGGNRCLGRIEVKFQGRWGTVCDDNFNINHASVVCKQLECGSAVSFSGSANFGEGSGPIWFDDLVCNGNESALWNCKHEGWGKHNCDHAEDAGVICLNGADLKLRVVDGVTECSGRLEVKFQGEWGTICDDGWDSDDAAVACKQLGCPTAVTAIGRVNASEGTGHIWLDSVSCHGHESALWQCRHHEWGKHYCNHDEDAGVTCSDGSDLELRLKGGGSHCAGTVEVEIQKLVGKVCDRSWGLKEADVVCRQLGCGSALKTSYQVYSKTKATNTWLFVSSCNGNETSLWDCKNWQWGGLSCDHYDEAKITCSAHRKPRLVGGDIPCSGRVEVQHGDTWGTVCDSDFSLEAASVLCRELQCGTVVSLLGGAHFGEGSGQIWAEEFQCEGHESHLSLCPVAPPDGTCSHSRDVGVVCSRYTQIRLVNGKTPCEGRVELNILGSWGSLCNSHWDMEDAHVLCQQLKCGVALSIPGGAPFGKGSEQVWRHMFHCTGTEKHMGDCSVTALGASLCSSGQVASVICSGNQSQTLSPCNSSSSDPSSSIISEENGVACIGSGQLRLVDGGGRCAGRVEVYHEGSWGTICDDSWDLNDAHVVCKQLSCGWAINATGSAHFGEGTGPIWLDEINCNGKESHIWQCHSHGWGRHNCRHKEDAGVICSEFMSLRLISENSRETCAGRLEVFYNGAWGSVGRNSMSPATVGVVCRQLGCADRGDISPASSDKTVSRHMWVDNVQCPKGPDTLWQCPSSPWKKRLASPSEETWITCANKIRLQEGNTNCSGRVEIWYGGSWGTVCDDSWDLEDAQVVCRQLGCGSALEAGKEAAFGQGTGPIWLNEVKCKGNETSLWDCPARSWGHSDCGHKEDAAVTCSEIAKSRESLHATGRSSFVALAIFGVILLACLIAFLIWTQKRRQRQRLSVFSGGENSVHQIQYREMNSCLKADETDMLNPSGDHSEVQ
As to B2, the response (relative ratio of CD163/GP2) in experiment [3] amounted to 1.8.

Values taken from article PMC12456131.
